The text below walks through data of patent US20240288440A1.

Test [1] has as its target chimeric secretory component (CSC) of the polymeric immunoglobulin receptor (rabbit (domain 1) and human (domains 2 to 5)).
For test [2], the target named is receptor binding domain (RBD) of the SARS COV-2 spike protein (amino acids 332-532) (SARS-COV-2) (UniProt P0DTC2).

Sequence of chimeric secretory component (CSC) of the polymeric immunoglobulin receptor (rabbit (domain 1) and human (domains 2 to 5)) (P01833 other isoform, or with tags, fused parts or gaps mutant): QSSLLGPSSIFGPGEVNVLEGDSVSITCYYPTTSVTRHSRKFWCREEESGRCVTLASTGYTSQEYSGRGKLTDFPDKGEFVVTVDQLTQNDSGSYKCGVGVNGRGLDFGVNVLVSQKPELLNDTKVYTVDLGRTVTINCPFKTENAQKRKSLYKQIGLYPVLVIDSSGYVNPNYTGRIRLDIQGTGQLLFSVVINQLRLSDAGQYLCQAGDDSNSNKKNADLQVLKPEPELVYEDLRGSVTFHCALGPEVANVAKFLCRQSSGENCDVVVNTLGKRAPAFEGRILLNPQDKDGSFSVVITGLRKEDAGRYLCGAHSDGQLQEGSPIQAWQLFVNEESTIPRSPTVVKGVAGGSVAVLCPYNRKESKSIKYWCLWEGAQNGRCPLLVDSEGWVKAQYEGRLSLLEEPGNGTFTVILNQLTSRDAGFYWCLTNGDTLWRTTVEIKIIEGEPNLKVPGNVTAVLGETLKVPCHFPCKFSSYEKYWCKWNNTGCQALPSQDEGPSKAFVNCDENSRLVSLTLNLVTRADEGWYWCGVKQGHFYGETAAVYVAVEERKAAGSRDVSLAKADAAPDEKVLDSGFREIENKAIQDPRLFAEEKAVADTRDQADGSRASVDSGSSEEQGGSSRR

With “CB6-IgG (SARS-COV-2 specific monoclonal antibody CB6, IgG form)”, the limit of detection is greater than 100 µg/mL in test [1] and 5 µg/mL in test [2].
